Columns and labels:
[1] = target: T1, Tag5-161P2F10B, purified recombinant extracellular domain (ECD) of 161P2F10B (amino acids 46-875) (human, UniProt O14638 46-875); assay: SPR, MAb captured on CM5 chip, recombinant 161P2F10B 1-100 nM injected
T1 construct: also called recombinant 161P2F10B; Tag5-161P2F10B-ECD
Excerpt: Briefly, each purified human MAb is captured onto a CM5 sensor chip surface. On average approximately 150 RUs of each MAb is captured in every cycle.

[2] = target: T2, mouse 161P2F10B expressed on 293T cells (mouse, UniProt Q6DYE8 1-874); assay: FACS: 293T-mouse 161P2F10B cells (open line) vs 293T-neo cells (filled), MAb 2 µg/mL, anti-hIgG-PE
T2 construct: whole, on cells; also called murine 161P2F10B; mouse 161P2F10B ortholog
T2 sequence (Q6DYE8 whole entry): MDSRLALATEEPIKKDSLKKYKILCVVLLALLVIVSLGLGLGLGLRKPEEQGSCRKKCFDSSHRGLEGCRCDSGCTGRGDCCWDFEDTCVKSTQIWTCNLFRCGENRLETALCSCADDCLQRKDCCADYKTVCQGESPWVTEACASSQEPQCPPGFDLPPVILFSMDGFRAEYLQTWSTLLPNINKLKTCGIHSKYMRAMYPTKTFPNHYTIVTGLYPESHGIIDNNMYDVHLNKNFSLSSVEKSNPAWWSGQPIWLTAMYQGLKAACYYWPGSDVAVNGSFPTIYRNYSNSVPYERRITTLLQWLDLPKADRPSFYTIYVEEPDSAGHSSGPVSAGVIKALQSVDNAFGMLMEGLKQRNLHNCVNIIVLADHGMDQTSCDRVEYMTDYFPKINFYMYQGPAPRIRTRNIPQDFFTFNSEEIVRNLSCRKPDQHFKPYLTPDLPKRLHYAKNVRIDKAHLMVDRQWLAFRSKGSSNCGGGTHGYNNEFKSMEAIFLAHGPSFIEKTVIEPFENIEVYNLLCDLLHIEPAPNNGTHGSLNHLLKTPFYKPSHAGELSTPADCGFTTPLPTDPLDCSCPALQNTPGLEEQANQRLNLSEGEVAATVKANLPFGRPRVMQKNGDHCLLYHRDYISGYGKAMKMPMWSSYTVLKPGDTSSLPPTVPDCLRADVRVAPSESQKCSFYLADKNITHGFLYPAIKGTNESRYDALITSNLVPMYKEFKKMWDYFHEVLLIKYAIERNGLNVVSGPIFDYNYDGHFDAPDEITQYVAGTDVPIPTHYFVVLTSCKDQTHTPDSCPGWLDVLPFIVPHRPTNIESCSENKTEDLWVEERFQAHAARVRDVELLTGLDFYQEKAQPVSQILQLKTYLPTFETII
Description: Cross reactivity of human MAbs on mouse 161P2F10B. […] Antibodies bound on the cells were detected using anti-hIgG-PE and analyzed on FACS. Data were analyzed using CellQuest Pro software. The solid purple line is data from negative control cells. The green line is from 161P2F10B-positive cells.

Kd [1] [nM]	binding result [2]	Binder
9		H16-7.200 (antibody, V domains shown, Entries include the leader (VL: part of it) and a portion of the constant region; also called HA16-7.200) VH: QVQLQESGPGLVKPSQTLSLTCTVSGGSITSGDYYWSWIRQHPGKGLEWFGFIYYSGSAYYNPSLKSRITISVDTSKNQFSLKLSSVTAADTAVYYCARERNYGGNSFDYWGQGTLVTVSS VL: not shown
	binds	H16-7.8 (antibody, V domains shown, Entries include the leader and a portion of the constant region) VH: QVQLQESGPGLVKPSQTLSLTCTVSGGSISSGGYYWSWIRQHPGKGLEWIGIIYYSGSTYYNPSLKSRVTISVDTSKNQFSLKLNSVTAADTAVFYCARVAIVTTIPGGMDVWGQGTTVTVSS VL: EIVLTQSPDFQSVTPKEKVTITCRASQSIGISLHWYQQKPDQSPKLLIKYASQSFSGVPSRFSGSGSGTDFTLTINSLEAEDAATYYCHQSRSFPWTFGQGTKVEIKR
